Positions count from the first letter of the chain named.

Assay [1] deals with Influenza virus A/Brisbane/59/2007 (H1N1) (Influenza A virus A/Brisbane/59/2007 (H1N1)). Nature of the assay: ELISA on coated viral particles. On the technique in general: An ELISA detects its analyte on a solid surface through an enzyme-linked reagent.
The target in assay [2] is Influenza virus A/California/7/2009pdm (H1N1pdm) (Influenza A virus A/California/7/2009pdm (H1N1pdm)). The assay is described as follows: ELISA on coated viral particles.
Assay [3] addresses Influenza virus A/New Caledonia/20/1999 (H1N1) (Influenza A virus A/New Caledonia/20/1999 (H1N1)). Nature of the assay: ELISA on coated viral particles.
Assay [4] addresses Influenza virus A/Panama/2007/1999 (H3N2) (Influenza A virus A/Panama/2007/1999 (H3N2)). Nature of the assay: ELISA on coated viral particles.
Assay [5] addresses Influenza virus A/Brisbane/59/2007 (H1N1) (Influenza A virus A/Brisbane/59/2007 (H1N1)). Nature of the assay: cell-based or functional assay.
Assay [6] has as its target Influenza virus A/Indonesia/5/2005/PR8-IBCDC-RG2 (H5N1) (Influenza A virus A/Indonesia/5/2005/PR8-IBCDC-RG2 (H5N1)). The assay is described as follows: cell-based or functional assay.
Assay [7] concerns the target Influenza virus A/Okuda/1957 (H2N2) (Influenza A virus A/Okuda/1957 (H2N2)). Nature of the assay: cell-based or functional assay.
For assay [8], the target named is Influenza virus A/Panama/2007/1999 (H3N2) (Influenza A virus A/Panama/2007/1999 (H3N2)). Nature of the assay: cell-based or functional assay.
Assay [9] concerns the target Influenza virus A/Suita/1/2009pdm (H1N1 2009 pandemic) (Influenza A virus A/Suita/1/2009pdm (H1N1pdm)). Nature of the assay: cell-based or functional assay.

B1: Group 36 representative clone F082-243, Fab-cp3-type antibody (Fab, V domains shown)
VH: QVQLQQSGAEVKKPGSSVKVSCKASGGIFRKNAISWVRQAPGQGLEWMGGIIAIFGTANYAQKFQGRVTITADDSTNTVYMELTSLRYEDTAVYYCARGPNYYENYFDFWGQGTLVTVSS
VL: EIVLTQSPSSLSASLRDTVTITCRTSQAITNYLAWYQQRPGKAPKLLIYAASVLQSGVPSRFSGSGSGTDFTLTISSLQPEDFATYYCQKYDSAPYTFGQGTKLEIK
Regarding B1, the Binding activity (absorbance at 492 nm) in [1] was found to be 1.05; in [2] it was 0.8; in assay [3], 0.96; in [4], 0.13.

B2: Group 47 representative clone F083-308, Fab-cp3-type antibody (Fab, V domains shown)
VH: QVQLVQSGAEVKKPGSSVKVSCKASGGIFRSHAISWVRQAPGQGLEWMGGIIAIFGTTHYAQQFQGRVTITADESTSTVYMELSTLRSEDTAVYYCARGPNYFESYFDNWGQGTLVTVSS
VL: EIVLTQSPATLSLSPGERATLSCRASQTISSYLAWYQQKPGQAPRLLIYGASNRATGIPARFSGSGSGTDFTLTINSLEPEDFAVYYCQQRSSWPPITFGQGTRLEIK
In the case of B2, the Binding activity (absorbance at 492 nm) in assay [1] turned out to be 1.82; in [2] it was 1.21; in assay [3], 1.79; in [4], 0.16.

B3: Group 39 representative clone F082-237, Fab-cp3-type antibody (Fab, V domains shown)
VH: QVQLVQSGAEVKKPGSSVKVSCKASGGIFNKYGISWVRQAPGQGLEWMGGILAIFGTTNYAQKFQGRVTISADESSTTVYMELSSLTSEDTAVYYCARGNTYYSSYFDQWGQGTLVTVSS
VL: QSVLTQPPSVSVAPGQTATITCGGDKIGTGPVHWYQQMPGRAPVLLIYASTHRPSRIPERFSGSKSDNTATLSISGVGVGDEADYYCQMWDSSSVHPIVFGGGTKLTVLS
For the molecule B3, the Binding activity (absorbance at 492 nm) in assay [1] was 1.95; in assay [2] it was 2.62; in assay [3], 1.94; in [4], 0.13.

B4: Group 54 representative clone F083-354, Fab-cp3-type antibody (Fab, V domains shown)
VH: B3 VH with A9S, K31S, S71T, E74D, T77K, N100S
VL: DIQMTQSPSSLSASVGDRVTITCRASQGIRNSLAWYQQKPGQVPKLLIYSATTLRSGVPYRFSGSGSGTDFTLTISGLQPEDVGTYFCHRYDSAPLTFGGGTRVALK
On to B4, for which the Binding activity (absorbance at 492 nm) in assay [1] came out at 3.01; in [2], 2.54; in assay [3], 3.05; in assay [4], 0.16.

B5: Group 52 representative clone F083-328, Fab-cp3-type antibody (Fab, V domains shown)
VH: QVQLVQSGAEVKKPGSSVKLSCKASGGTLRSYALSWVRQAPGEGLEWMGGISAIFNTATYAQNVQGRVTITADESTNTFYLEVSSLRSDDTAVYYCATSGTYYVSFFDYWGQGTLVTVSS
VL: DIVLTQSPSTLSASVGDRVTLTCRASQSIGSLMAWYQQQPGKPPKLLIYRASNLETGVPSRFTGSGSGTEFALTISSLQPDDVGTYYCQHFKTFSRTFGQGTKVEIK
As for B5, the Binding activity (absorbance at 492 nm) in assay [1] amounted to 2.43; in [2], 2.02; in assay [3], 2.66; in assay [4], 0.22.

B6: Group 35 representative clone F082-117, Fab-cp3-type antibody (Fab, V domains shown)
VH: QVQLVQSGSEVKKPGSSVKVSCKSSGGILRRSAISWVRQAPGQGLEWMGGILAIFGTTKYAQKFQGRITITADESTNTVHMELSSLRPDDTAVYYCAGGPHYYVSYFDSWGQGTLVTVSS
VL: DIQMTQSPATLSLSPGERATLSCRASQSVRSYLAWYQQKPGQAPRLLIYDASNRATGIPARFSGSGSGTEFTLTISRLEPEDFAVYYCQQRSNWLFTFGPGTKVDFK
In the case of B6, the Binding activity (absorbance at 492 nm) in [1] is 3.26; in assay [2], 3.11; in [3], 3.35; in assay [4] it was 0.15.

B7: Group 37 representative clone F083-311, Fab-cp3-type antibody (Fab, V domains shown)
VH: QVQLVQSGSEVKKPGSSVKVSCKASGGIFRTNAISYVRQAPGQGLEWMGGITAIFGTPNYAQKFQGRVTIIADESTSTVYMELGSLTSEDTAVYYCATSGTYYVSYFDSWGQGTLVTVSS
VL: DIVMTQSPGTLTLSPGERATLSCRASQSLYSSHLAWYQQKPGQPPRLLIYGASTRAPGTPDRFSGSGSGTDFTLTITALDPEDSAVYYCQQYGSSPITFGQGTRLEIK
For B7, the Binding activity (absorbance at 492 nm) in assay [1] was determined as 2.64; in [2] it was 1.82; in assay [3] it was 2.59; in assay [4] it was 0.15.

B8: F081-007 completely humanized IgG antibody (antibody, V domains shown)
VH: QVQLQQSGAEVKKPGSSVKVSCKASGGIFRKNAISWVRQAPGQGLEWMGGISAIFGTANYAQKFQGRVTITADESSNTVYMDLSRLRSEDTAIYYCASHPTYHFDKSGYRFDSWGQGTLVTVSS
VL: QSVLTQPPSVSAAPGQKVTISCSGSSSNIGNNYVSWYQQLPGTAPKLLIYDNNKRPSGIPDRFSGSKSGTSATLGITGLQTGDEADYYCGTWDSSLSAGVFGGGTKLTVLG
In assay [5], B8 returned an Infection inhibition rate (%) of 36.3%, an Infection inhibition rate (%) at 0.002 µg/mL of 0%, an Infection inhibition rate (%) at 0.006 µg/mL of 9.9% and an Infection inhibition rate (%) at 0.024 µg/mL of 27.9%. In assay [5], this molecule yielded an Infection inhibition rate (%) at 0.391 µg/mL of 59.2%, an Infection inhibition rate (%) at 1.6 µg/mL of 82.4%, an Infection inhibition rate (%) at 6.3 µg/mL of 90.1% and an Infection inhibition rate (%) at 25.0 µg/mL of 100%. In addition, in assay [5], the Infection inhibition rate (%) at 100.0 µg/mL amounted to 100% and the Infection inhibition rate (%) at 200.0 µg/mL amounted to 100%. In assay [6], the IC50 of neutralization was 0.36 µg/mL, the Infection inhibition rate (%) amounted to 10.2%, the Infection inhibition rate (%) at 0.024 µg/mL was determined as 7% and the Infection inhibition rate (%) at 0.391 µg/mL was 55.3%. For the same molecule, in assay [6], the Infection inhibition rate (%) at 1.6 µg/mL came to 85.1%, the Infection inhibition rate (%) at 6.3 µg/mL is 100%, the Infection inhibition rate (%) at 25.0 µg/mL turned out to be 100% and the Infection inhibition rate (%) at 100.0 µg/mL is 100%. In [6], the Infection inhibition rate (%) at 200.0 µg/mL is 100%. Further, in [7], the Infection inhibition rate (%) at 0.024 µg/mL was determined as 0%, the Infection inhibition rate (%) at 0.391 µg/mL came out at 37.2%, the Infection inhibition rate (%) at 0.98 µg/mL worked out at 16.5% and the Infection inhibition rate (%) at 1.6 µg/mL is 79%. In assay [7], this molecule yielded an Infection inhibition rate (%) at 6.3 µg/mL of 92.6%, an Infection inhibition rate (%) at 25.0 µg/mL of 98.2%, an Infection inhibition rate (%) at 100.0 µg/mL of 98.9% and an Infection inhibition rate (%) at 200.0 µg/mL of 98.9%. Besides, in [8], the Infection inhibition rate (%) was 0%, the Infection inhibition rate (%) at 0.391 µg/mL turned out to be 0%, the Infection inhibition rate (%) at 1.6 µg/mL was 0% and the Infection inhibition rate (%) at 6.3 µg/mL turned out to be 0%. In [8], the Infection inhibition rate (%) at 25.0 µg/mL came out at 0%, the Infection inhibition rate (%) at 100.0 µg/mL amounted to 0% and the Infection inhibition rate (%) at 200.0 µg/mL is 0%. In assay [9], this molecule returned an Infection inhibition rate (%) of 49.8%, an Infection inhibition rate (%) at 0.002 µg/mL of 29.3%, an Infection inhibition rate (%) at 0.006 µg/mL of 32% and an Infection inhibition rate (%) at 0.024 µg/mL of 45.3%. In assay [9], the Infection inhibition rate (%) at 0.391 µg/mL was found to be 83.1%, the Infection inhibition rate (%) at 1.6 µg/mL was determined as 96.8%, the Infection inhibition rate (%) at 6.3 µg/mL was 100% and the Infection inhibition rate (%) at 25.0 µg/mL was found to be 100%. In assay [9], this molecule yielded an Infection inhibition rate (%) at 100.0 µg/mL of 100% and an Infection inhibition rate (%) at 200.0 µg/mL of 100%.

B9: Group 48 representative clone F083-389, Fab-cp3-type antibody (Fab, V domains shown)
VH: QVQLVQSGAEVKKPGSSVKVSCKASGDIFNKFAITWVRQAPGQGLEWMGGITALFATTSYAQKFQDRVTINWDESTTTAFMELSSLRFEDTAVYYCARGPNYYETYLDNWGQGTLVTVSS
VL: EIVLTQSPTILSASVGDRVTITCRASQSISKWLAWYQQKPGKVPKLLIYMASTLESGVPSRFSGSGSGSEFTLTISSLQPGDFATYYCQQYNSYPRTFGQGTKVEINV
With B9, the Binding activity (absorbance at 492 nm) in assay [1] is 2.83; in [2], 2.49; in assay [3] it was 2.72; in assay [4], 0.14.

B10: Group 3 representative clone F081-281, Fab-cp3-type antibody (Fab, V domains shown)
VH: QVQLVQSGSEVKKPGSSVKVSCSFKASGGIISKYAITWVRQAPGQGLEWMGGIIAIFGSTNYAQKFQGRLTITSDESTSTAYMELSSLTSEDTAVYYCGRGPHYYESHLDYWGQGTLVTVSS
VL: EIVLTQSPGTLSLSPGERATLSCRASQGMSSSFLAWYQQKPGQPPRLLISGASTRATGIPDRFSGSGSGTDFTLTINRLEPEDFAVYYCQQYGSSPRTFGQGTKVEIK
Consider B10, for which the Binding activity (absorbance at 492 nm) amounted to 2.98 in [1], 2.87 in assay [2], 2.86 in assay [3] and 0.18 in assay [4].
